Literature values in publication PMC12283743.

Tested on: H. pylori surface recombinant antigen (not named) (Helicobacter pylori)
Settings: target of the Kd cut off in the material (recombinant antigen or cells); Sensor only: bacteria incubated 40 min on the aptamer electrode, detection in PBS pH 7.0 (0.1 M for CV), room temperature; conditions of the cited Kd not given

For “AGTGTGCTCTTCTCAGGTCTCGGCGCGGTTGTGGGTACCTAGGGTTGTTGTTGCTTCTCAGCAGTGTCTCAGCATACGCA [H. pylori aptamer]”, the Kd is listed as 0.026 µM.
